Assay results as given in IntAct's records for PubMed 22020126.

B1: Histone acetyltransferase ESA1 (Saccharomyces cerevisiae), Q08649 (parent)
chain: MSHDGKEEPGIAKKINSVDDIIIKCQCWVQKNDEERLAEILSINTRKAPPKFYVHYVNYNKRLDEWITTDRINLDKEVLYPKLKATDEDNKKQKKKKATNTSETPQDSLQDGVDGFSRENTDVMDLDNLNVQGIKDENISHEDEIKKLRTSGSMTQNPHEVARVRNLNRIIMGKYEIEPWYFSPYPIELTDEDFIYIDDFTLQYFGSKKQYERYRKKCTLRHPPGNEIYRDDYVSFFEIDGRKQRTWCRNLCLLSKLFLDHKTLYYDVDPFLFYCMTRRDELGHHLVGYFSKEKESADGYNVACILTLPQYQRMGYGKLLIEFSYELSKKENKVGSPEKPLSDLGLLSYRAYWSDTLITLLVEHQKEITIDEISSMTSMTTTDILHTAKTLNILRYYKGQHIIFLNEDILDRYNRLKAKKRRTIDPNRLIWKPPVFTASQLRFAW
B2: Histone acetyltransferase KAT8 (Homo sapiens), Q9H7Z6 (parent)
chain: MAAQGAAAAVAAGTSGVAGEGEPGPGENAAAEGTAPSPGRVSPPTPARGEPEVTVEIGETYLCRRPDSTWHSAEVIQSRVNDQEGREEFYVHYVGFNRRLDEWVDKNRLALTKTVKDAVQKNSEKYLSELAEQPERKITRNQKRKHDEINHVQKTYAEMDPTTAALEKEHEAITKVKYVDKIHIGNYEIDAWYFSPFPEDYGKQPKLWLCEYCLKYMKYEKSYRFHLGQCQWRQPPGKEIYRKSNISVYEVDGKDHKIYCQNLCLLAKLFLDHKTLYFDVEPFVFYILTEVDRQGAHIVGYFSKEKESPDGNNVACILTLPPYQRRGYGKFLIAFSYELSKLESTVGSPEKPLSDLGKLSYRSYWSWVLLEILRDFRGTLSIKDLSQMTSITQNDIISTLQSLNMVKYWKGQHVICVTPKLVEEHLKSAQYKKPPITVDSVCLKWAPPKHKQVKLSKK

Variants of: B1
Conditions: with h4_yeast HHF1, P02309

Row | effect of a mutation on the interaction | Variant
1 | disrupting interaction | K262R

Variants of: B1
Conditions: with h4_yeast HHF1, P02309
Remark: another data set of the same source

Row | effect of a mutation on the interaction | Variant
2 | decreasing interaction | K262Q

Variants of: B1
Conditions: with h4_yeast HHF1, P02309
Remark: another data set of the same source

Row | effect of a mutation on the interaction | Variant
3 | disrupting interaction | K262A

Variants of: B2
Conditions: with h4_yeast HHF1, P02309

Row | effect of a mutation on the interaction | Variant
4 | disrupting interaction | K274R

Variants of: B2
Conditions: with h4_yeast HHF1, P02309
Remark: another data set of the same source

Row | effect of a mutation on the interaction | Variant
5 | disrupting interaction | K274A
